Experimental findings from doi:10.1101/2020.09.02.280610 are described below.

The assay addresses recombinant soluble canine IL-10 receptor alpha chain (extra-cytoplasmic domain of canine IL-10R1) (canine). As to the kind of experiment: SPR.

“recombinant canine IL-10 (from UniProt P48411 20-181) (ligand)”: the EC80 (binding equilibrium constant) stood at 0.0514 µM, the RU at 31.2 ng/mL was 211 RU and the RU at 125 ng/mL (plateau) was 1720 RU.
